One block for each molecule: values may come before it.
How the values were obtained:
PcCel7D [1] = target: T1, PcCel7D (Phanerodontia chrysosporium, UniProt Q7LIJ0); experiment: inhibition of pNPL hydrolysis, absorbance of pNP at […] nm; assay type: biochemical; conditions: read-out: K i for lactose (μM) ^b; pNPL as substrate, 0.2 mM lactose; competitive; 10 mM sodium acetate, pH 5.0, 20 °C
T1 sequence (Q7LIJ0 19-510): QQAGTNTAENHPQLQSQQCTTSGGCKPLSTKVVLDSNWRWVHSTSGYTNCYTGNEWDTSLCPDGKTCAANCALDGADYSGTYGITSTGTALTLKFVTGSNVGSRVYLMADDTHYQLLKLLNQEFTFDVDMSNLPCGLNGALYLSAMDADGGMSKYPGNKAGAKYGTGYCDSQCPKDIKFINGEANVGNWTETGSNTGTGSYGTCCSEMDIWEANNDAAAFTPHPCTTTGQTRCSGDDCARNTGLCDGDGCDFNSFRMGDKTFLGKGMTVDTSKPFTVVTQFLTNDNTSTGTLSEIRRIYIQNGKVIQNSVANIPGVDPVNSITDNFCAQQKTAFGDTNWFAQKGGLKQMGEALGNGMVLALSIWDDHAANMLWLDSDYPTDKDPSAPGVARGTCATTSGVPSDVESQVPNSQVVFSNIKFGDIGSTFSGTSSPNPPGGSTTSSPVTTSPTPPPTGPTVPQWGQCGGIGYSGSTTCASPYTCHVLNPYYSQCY

TrCel7A [2] = target: T2, TrCel7A (Trichoderma reesei, UniProt P62694); experiment: as above; assay type: biochemical; conditions: read-out: K i for lactose (μM) ^b; pNPL as substrate, 0.2 mM lactose; competitive; 10 mM sodium acetate, pH 5.0, 20 °C
T2 sequence (P62694 18-513): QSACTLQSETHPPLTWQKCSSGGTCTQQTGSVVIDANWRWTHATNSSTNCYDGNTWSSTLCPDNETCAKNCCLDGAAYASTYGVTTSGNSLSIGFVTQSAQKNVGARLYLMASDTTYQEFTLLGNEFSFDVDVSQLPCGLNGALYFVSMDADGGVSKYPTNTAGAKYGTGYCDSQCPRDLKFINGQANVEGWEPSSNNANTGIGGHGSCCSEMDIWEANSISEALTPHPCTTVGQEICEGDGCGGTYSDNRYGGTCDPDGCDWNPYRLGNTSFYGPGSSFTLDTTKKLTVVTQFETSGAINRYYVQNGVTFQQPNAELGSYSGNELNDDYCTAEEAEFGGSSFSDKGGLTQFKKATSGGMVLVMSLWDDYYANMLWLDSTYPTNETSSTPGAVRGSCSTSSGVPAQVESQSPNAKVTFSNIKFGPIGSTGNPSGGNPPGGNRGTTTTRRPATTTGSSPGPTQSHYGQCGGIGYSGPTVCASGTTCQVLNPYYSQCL

TrCel7A [3] = target: T3, TrCel7A (Trichoderma reesei, UniProt P62694, E229Q); experiment: intrinsic protein fluorescence quenching titration; assay type: binding
T3 sequence (P62694 18-513 E229Q): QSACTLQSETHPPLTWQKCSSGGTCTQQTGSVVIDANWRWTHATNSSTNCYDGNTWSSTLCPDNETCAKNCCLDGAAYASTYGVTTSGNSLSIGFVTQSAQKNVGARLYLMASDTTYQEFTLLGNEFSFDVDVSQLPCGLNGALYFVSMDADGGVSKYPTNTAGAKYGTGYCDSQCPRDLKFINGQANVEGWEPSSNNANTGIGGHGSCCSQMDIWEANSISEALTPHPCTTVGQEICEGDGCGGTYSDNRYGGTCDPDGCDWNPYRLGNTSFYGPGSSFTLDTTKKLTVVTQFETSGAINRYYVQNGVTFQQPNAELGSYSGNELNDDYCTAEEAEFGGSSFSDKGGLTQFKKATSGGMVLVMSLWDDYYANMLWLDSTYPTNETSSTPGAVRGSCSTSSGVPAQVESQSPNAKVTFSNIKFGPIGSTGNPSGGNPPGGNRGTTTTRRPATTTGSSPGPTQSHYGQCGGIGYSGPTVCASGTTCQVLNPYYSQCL

PcCel7D [4] = target: T1, PcCel7D; experiment: intrinsic protein fluorescence quenching titration; assay type: binding
TrCel7A [5] = target: T2, TrCel7A; experiment: inhibition of MUC hydrolysis, fluorometric; assay type: biochemical
TrCel7A [6] = target: T2, TrCel7A; experiment: intrinsic protein fluorescence quenching titration; assay type: binding
TrCel7A [7] = target: T4, TrCel7A (Trichoderma reesei, UniProt P62694, E234Q); experiment: intrinsic protein fluorescence quenching titration; assay type: binding
T4 sequence (P62694 18-513 E234Q): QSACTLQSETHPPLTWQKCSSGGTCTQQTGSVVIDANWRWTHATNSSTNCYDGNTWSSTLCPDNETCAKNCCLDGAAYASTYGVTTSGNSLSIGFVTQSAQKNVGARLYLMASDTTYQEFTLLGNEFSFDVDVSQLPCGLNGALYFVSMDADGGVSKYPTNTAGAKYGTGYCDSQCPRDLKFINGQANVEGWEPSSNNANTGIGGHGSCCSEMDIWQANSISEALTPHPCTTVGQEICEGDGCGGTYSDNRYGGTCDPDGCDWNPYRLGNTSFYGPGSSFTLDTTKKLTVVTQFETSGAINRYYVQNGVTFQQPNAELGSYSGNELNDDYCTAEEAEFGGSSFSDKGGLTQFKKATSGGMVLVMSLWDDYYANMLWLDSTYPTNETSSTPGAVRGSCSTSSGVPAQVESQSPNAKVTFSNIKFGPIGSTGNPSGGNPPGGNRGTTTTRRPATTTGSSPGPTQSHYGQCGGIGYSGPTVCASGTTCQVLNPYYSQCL

TrCel7A [8] = target: T5, TrCel7A (Trichoderma reesei, UniProt P62694, D231N); experiment: intrinsic protein fluorescence quenching titration; assay type: binding
T5 sequence (P62694 18-513 D231N): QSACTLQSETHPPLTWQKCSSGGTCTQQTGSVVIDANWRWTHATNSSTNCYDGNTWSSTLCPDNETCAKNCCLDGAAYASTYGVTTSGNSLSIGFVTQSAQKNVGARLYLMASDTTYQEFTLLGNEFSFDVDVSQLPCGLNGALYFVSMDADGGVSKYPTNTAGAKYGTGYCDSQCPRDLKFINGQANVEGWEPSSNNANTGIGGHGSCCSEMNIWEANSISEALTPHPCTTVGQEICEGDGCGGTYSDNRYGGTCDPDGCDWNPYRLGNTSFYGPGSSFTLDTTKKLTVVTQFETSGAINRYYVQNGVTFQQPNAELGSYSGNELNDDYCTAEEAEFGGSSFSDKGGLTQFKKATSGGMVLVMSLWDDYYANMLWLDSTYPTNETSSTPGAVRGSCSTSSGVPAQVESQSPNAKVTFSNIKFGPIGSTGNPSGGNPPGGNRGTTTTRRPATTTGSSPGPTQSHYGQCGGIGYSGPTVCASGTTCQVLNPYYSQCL

purified protein [9] = substrate: Cc1cc(=O)oc2cc(O[C@@H]3O[C@H](CO)[C@@H](O[C@@H]4O[C@H](CO)[C@@H](O)[C@H](O)[C@H]4O)[C@H](O)[C@H]3O)ccc12; experiment: purified protein; conditions: 50 mM sodium acetate, pH 5.0, 25 °C
purified protein [10] = substrate: O=[N+]([O-])c1ccc(O[C@@H]2O[C@H](CO)[C@@H](O[C@@H]3O[C@H](CO)[C@@H](O)[C@H](O)[C@H]3O)[C@H](O)[C@H]2O)cc1; experiment: purified protein; conditions: 50 mM sodium acetate, pH 5.0, 25 °C
purified protein [11] = substrate: O=[N+]([O-])c1ccccc1O[C@@H]1O[C@H](CO)[C@@H](O[C@@H]2O[C@H](CO)[C@@H](O)[C@H](O)[C@H]2O)[C@H](O)[C@H]1O; experiment: purified protein; conditions: 50 mM sodium acetate, pH 5.0, 25 °C
purified protein [12] = substrate: [H][C@@]1(O[C@H]2[C@H](O)[C@@H](O)[C@H](Oc3ccc([N+](=O)[O-])cc3)O[C@@H]2CO)O[C@H](CO)[C@H](O)[C@H](O)[C@H]1O; experiment: purified protein; conditions: 50 mM sodium acetate, pH 5.0, 25 °C

B1: TrCel7A (Trichoderma reesei) (protein)
chain: QSACTLQSETHPPLTWQKCSSGGTCTQQTGSVVIDANWRWTHATNSSTNCYDGNTWSSTLCPDNETCAKNCCLDGAAYASTYGVTTSGNSLSIGFVTQSAQKNVGARLYLMASDTTYQEFTLLGNEFSFDVDVSQLPCGLNGALYFVSMDADGGVSKYPTNTAGAKYGTGYCDSQCPRDLKFINGQANVEGWEPSSNNANTGIGGHGSCCSEMDIWEANSISEALTPHPCTTVGQEICEGDGCGGTYSDNRYGGTCDPDGCDWNPYRLGNTSFYGPGSSFTLDTTKKLTVVTQFETSGAINRYYVQNGVTFQQPNAELGSYSGNELNDDYCTAEEAEFGGSSFSDKGGLTQFKKATSGGMVLVMSLWDDYYANMLWLDSTYPTNETSSTPGAVRGSCSTSSGVPAQVESQSPNAKVTFSNIKFGPIGSTGNPSGGNPPGGNRGTTTTRRPATTTGSSPGPTQSHYGQCGGIGYSGPTVCASGTTCQVLNPYYSQCL
- Km (purified protein [9]): 12 ± 1 µM
- kcat (purified protein [9]): 0.013 ± 0.001 s⁻¹
- kcat/Km (purified protein [9]): 1080 M⁻¹ s⁻¹

B2: PcCel7D (Phanerodontia chrysosporium) (protein)
chain: QQAGTNTAENHPQLQSQQCTTSGGCKPLSTKVVLDSNWRWVHSTSGYTNCYTGNEWDTSLCPDGKTCAANCALDGADYSGTYGITSTGTALTLKFVTGSNVGSRVYLMADDTHYQLLKLLNQEFTFDVDMSNLPCGLNGALYLSAMDADGGMSKYPGNKAGAKYGTGYCDSQCPKDIKFINGEANVGNWTETGSNTGTGSYGTCCSEMDIWEANNDAAAFTPHPCTTTGQTRCSGDDCARNTGLCDGDGCDFNSFRMGDKTFLGKGMTVDTSKPFTVVTQFLTNDNTSTGTLSEIRRIYIQNGKVIQNSVANIPGVDPVNSITDNFCAQQKTAFGDTNWFAQKGGLKQMGEALGNGMVLALSIWDDHAANMLWLDSDYPTDKDPSAPGVARGTCATTSGVPSDVESQVPNSQVVFSNIKFGDIGSTFSGTSSPNPPGGSTTSSPVTTSPTPPPTGPTVPQWGQCGGIGYSGSTTCASPYTCHVLNPYYSQCY
- Km (purified protein [9]): 210 ± 20 µM
- kcat (purified protein [9]): 0.22 ± 0.01 s⁻¹
- kcat/Km (purified protein [9]): 1050 M⁻¹ s⁻¹
- Km (purified protein [10]): 1300 ± 160 µM
- kcat (purified protein [10]): 0.046 ± 0.0021 s⁻¹
- kcat/Km (purified protein [10]): 35 M⁻¹ s⁻¹
- Km (purified protein [11]): 3200 ± 100 µM
- kcat (purified protein [11]): 0.015 ± 0.002 s⁻¹
- kcat/Km (purified protein [11]): 4.6 M⁻¹ s⁻¹
- Km (purified protein [12]): 5500 ± 400 µM
- kcat (purified protein [12]): 0.17 ± 0.01 s⁻¹
- kcat/Km (purified protein [12]): 31 M⁻¹ s⁻¹

Continued, values first:

- Ki (PcCel7D [1]): 183 ± 16 µM
- Ki (TrCel7A [2]): 180 ± 16 µM
Molecule: OC[C@H]1O[C@@H](O[C@H]2[C@H](O)[C@@H](O)C(O)O[C@@H]2CO)[C@H](O)[C@@H](O)[C@H]1O (some centres unmarked) [lactose]

- Kd (TrCel7A [3]): 4.7 ± 0.4 µM
- Kd (PcCel7D [4]): 110 ± 10 µM
- Ki (TrCel7A [5]): 5.6 ± 0.5 µM
- Kd (TrCel7A [6]): 7.4 ± 0.4 µM
- Kd (TrCel7A [7]): 3.9 ± 0.4 µM
- Kd (TrCel7A [8]): 7.1 ± 0.7 µM
Molecule: O=[N+]([O-])c1ccccc1O[C@@H]1O[C@H](CO)[C@@H](O[C@@H]2O[C@H](CO)[C@@H](O)[C@H](O)[C@H]2O)[C@H](O)[C@H]1O [oNPC, o-nitrophenyl-β-D-cellobioside]
